This note sets out measurements from patent US20220090138A1.

Assay [1] has as its target … (EBV LMP2A) presented by HLA-A*0201 (human). As to the kind of experiment: cell-based or functional assay.
Assay [2] deals with … (HCMV pp65) presented by HLA-A*0201 (human). As to the kind of experiment: cell-based or functional assay.

In assay [1], “TCR recognizing … presented by A*0201 (PDB #3REV)” returned an in vitro T cell activation assay (luciferase); targeting cassette design A of 6.1, an in vitro T cell activation assay (luciferase); targeting cassette design B of 6.3, an in vitro T cell activation assay (luciferase); targeting cassette design C of 7.6 and an in vitro T cell activation assay (luciferase); targeting cassette design D of 7. In assay [1], this substance gave an in vitro T cell activation assay (luciferase); targeting cassette design E of 5.9, an in vitro T cell activation assay (luciferase); targeting cassette design F of 3.7, an in vitro T cell activation assay (luciferase); targeting cassette design G of 7.6 and an in vitro T cell activation assay (luciferase); targeting cassette design H of 5.4. Further, in assay [1], the in vitro T cell activation assay (luciferase); targeting cassette design I stood at 6.2; the in vitro T cell activation assay (luciferase); targeting cassette design J was determined as 6.4; the induction of luciferase, in vitro T cell activation assay; short cassette AAY amounted to 11.3; the luciferase induction, in vitro T cell activation assay; short cassette 9AA (relative to uninfected controls) was determined as 12. For the same substance, in assay [1], the luciferase induction, in vitro T cell activation assay; short cassette 17AA (relative to uninfected controls) was determined as 10.3; the luciferase induction, in vitro T cell activation assay; short cassette 25AA (relative to uninfected controls) was found to be 14.6; the luciferase induction, in vitro T cell activation assay; short cassette AAY (relative to uninfected controls) is 11.3; the luciferase induction, in vitro T cell activation assay; short cassette RR (relative to uninfected controls) worked out at 8.5.

For “TCR recognizing … presented by A*0201 (PDB #5D2N)”, in assay [2], the in vitro T cell activation assay (luciferase); targeting cassette design A turned out to be 32.5, the in vitro T cell activation assay (luciferase); targeting cassette design B turned out to be 31.8, the in vitro T cell activation assay (luciferase); targeting cassette design C was 29.1 and the in vitro T cell activation assay (luciferase); targeting cassette design D is 29.1. In assay [2], this substance returned an in vitro T cell activation assay (luciferase); targeting cassette design E of 28.4, an in vitro T cell activation assay (luciferase); targeting cassette design F of 20.4, an in vitro T cell activation assay (luciferase); targeting cassette design G of 35 and an in vitro T cell activation assay (luciferase); targeting cassette design H of 30.3. Besides, in assay [2], the in vitro T cell activation assay (luciferase); targeting cassette design I came to 22.5; the in vitro T cell activation assay (luciferase); targeting cassette design J stood at 38.1; the induction of luciferase, in vitro T cell activation assay; short cassette AAY turned out to be 24.5; the luciferase induction, in vitro T cell activation assay; short cassette 9AA (relative to uninfected controls) was 33.6. In assay [2], this substance displayed a luciferase induction, in vitro T cell activation assay; short cassette 17AA (relative to uninfected controls) of 42.8; a luciferase induction, in vitro T cell activation assay; short cassette 25AA (relative to uninfected controls) of 42.3; a luciferase induction, in vitro T cell activation assay; short cassette AAY (relative to uninfected controls) of 24.5; a luciferase induction, in vitro T cell activation assay; short cassette DPP (linker designed to disrupt antigen processing) (relative to uninfected controls) of 0.9. Also, in assay [2], the luciferase induction, in vitro T cell activation assay; short cassette RR (relative to uninfected controls) amounted to 21.7.
